In paper PMC8363748, “The conformational stability of pro-apoptotic BAX is dictated by discrete residues of the protein core” (Nature Communications, 2021):

Target: the molecule itself
Experiment: SEC; N-His6-GFP-BAX α2–α5 proteins, Superdex S-200, TBS; the dimer is observed as a GFP-mediated dimer/oligomer of dimers

Protein | binding result
N-His6-GFP-BAX α2–α5 (53–128), C62S/C126S (domain or fragment, human, UniProt Q07812 53-128, looked up, BAX α2–α5 truncate, residues 53–128, human; also called BAX α2–α5 WT; wild-type BAX α2–α5; source: E. coli, purified (Ni-NTA, SEC Superdex S-200); not shown: His6, N-terminal, kept; GFP, N-terminal, kept) DASTKKLSESLKRIGDELDSNMELQRMIAAVDTDSPREVFFRVAADMFSDGNFNWGRVVALFYFASKLVLKALSTK | binds
GFP-BAX α2–α5 F114A (domain or fragment, human, UniProt Q07812 53-128, looked up, BAX α2–α5 truncate, residues 53–128, human; source: E. coli, purified (Ni-NTA, SEC Superdex S-200); not shown: His6, N-terminal, kept; GFP, N-terminal, kept) DASTKKLSESLKRIGDELDSNMELQRMIAAVDTDSPREVFFRVAADMFSDGNFNWGRVVALAYFASKLVLKALSTK | binds
GFP-BAX α2–α5 L113A (domain or fragment, human, UniProt Q07812 53-128, looked up, BAX α2–α5 truncate, residues 53–128, human; source: E. coli, purified (Ni-NTA, SEC Superdex S-200); not shown: His6, N-terminal, kept; GFP, N-terminal, kept) DASTKKLSESLKRIGDELDSNMELQRMIAAVDTDSPREVFFRVAADMFSDGNFNWGRVVAAFYFASKLVLKALSTK | binds
GFP-BAX α2–α5 L113A/F114A/Y115A (domain or fragment, human, UniProt Q07812 53-128, looked up, BAX α2–α5 truncate, residues 53–128, human; also called triple BAX α2–α5 mutant L113A/F114A/Y115A; source: E. coli, purified (Ni-NTA, SEC Superdex S-200); not shown: His6, N-terminal, kept; GFP, N-terminal, kept) DASTKKLSESLKRIGDELDSNMELQRMIAAVDTDSPREVFFRVAADMFSDGNFNWGRVVAAAAFASKLVLKALSTK | binds
GFP-BAX α2–α5 L113A/Y115A (domain or fragment, human, UniProt Q07812 53-128, looked up, BAX α2–α5 truncate, residues 53–128, human; also called double alanine mutant; source: E. coli, purified (Ni-NTA, SEC Superdex S-200); not shown: His6, N-terminal, kept; GFP, N-terminal, kept) DASTKKLSESLKRIGDELDSNMELQRMIAAVDTDSPREVFFRVAADMFSDGNFNWGRVVAAFAFASKLVLKALSTK | binds
GFP-BAX α2–α5 Y115A/F116A (domain or fragment, human, UniProt Q07812 53-128, looked up, BAX α2–α5 truncate, residues 53–128, human; also called double alanine mutant; source: E. coli, purified (Ni-NTA, SEC Superdex S-200); not shown: His6, N-terminal, kept; GFP, N-terminal, kept) DASTKKLSESLKRIGDELDSNMELQRMIAAVDTDSPREVFFRVAADMFSDGNFNWGRVVALFAAASKLVLKALSTK | binds
GFP-BAX α2–α5 F114A/Y115A (domain or fragment, human, UniProt Q07812 53-128, looked up, BAX α2–α5 truncate, residues 53–128, human; also called double alanine mutant; source: E. coli, purified (Ni-NTA, SEC Superdex S-200); not shown: His6, N-terminal, kept; GFP, N-terminal, kept) DASTKKLSESLKRIGDELDSNMELQRMIAAVDTDSPREVFFRVAADMFSDGNFNWGRVVALAAFASKLVLKALSTK | binds
GFP-BAX α2–α5 F116A (domain or fragment, human, UniProt Q07812 53-128, looked up, BAX α2–α5 truncate, residues 53–128, human; source: E. coli, purified (Ni-NTA, SEC Superdex S-200); not shown: His6, N-terminal, kept; GFP, N-terminal, kept) DASTKKLSESLKRIGDELDSNMELQRMIAAVDTDSPREVFFRVAADMFSDGNFNWGRVVALFYAASKLVLKALSTK | binds
GFP-BAX α2–α5 F114A/F116A (domain or fragment, human, UniProt Q07812 53-128, looked up, BAX α2–α5 truncate, residues 53–128, human; also called double alanine mutant; source: E. coli, purified (Ni-NTA, SEC Superdex S-200); not shown: His6, N-terminal, kept; GFP, N-terminal, kept) DASTKKLSESLKRIGDELDSNMELQRMIAAVDTDSPREVFFRVAADMFSDGNFNWGRVVALAYAASKLVLKALSTK | binds
GFP-BAX α2–α5 L113A/F114A (domain or fragment, human, UniProt Q07812 53-128, looked up, BAX α2–α5 truncate, residues 53–128, human; also called double alanine mutant; source: E. coli, purified (Ni-NTA, SEC Superdex S-200); not shown: His6, N-terminal, kept; GFP, N-terminal, kept) DASTKKLSESLKRIGDELDSNMELQRMIAAVDTDSPREVFFRVAADMFSDGNFNWGRVVAAAYFASKLVLKALSTK | binds
GFP-BAX α2–α5 Y115A (domain or fragment, human, UniProt Q07812 53-128, looked up, BAX α2–α5 truncate, residues 53–128, human; source: E. coli, purified (Ni-NTA, SEC Superdex S-200); not shown: His6, N-terminal, kept; GFP, N-terminal, kept) DASTKKLSESLKRIGDELDSNMELQRMIAAVDTDSPREVFFRVAADMFSDGNFNWGRVVALFAFASKLVLKALSTK | binds
GFP-BAX α2–α5 L113A/F114A/F116A (domain or fragment, human, UniProt Q07812 53-128, looked up, BAX α2–α5 truncate, residues 53–128, human; also called triple BAX α2–α5 mutant L113A/F114A/F116A; source: E. coli, purified (Ni-NTA, SEC Superdex S-200); not shown: His6, N-terminal, kept; GFP, N-terminal, kept) DASTKKLSESLKRIGDELDSNMELQRMIAAVDTDSPREVFFRVAADMFSDGNFNWGRVVAAAYAASKLVLKALSTK | binds
GFP-BAX α2–α5 F114A/Y115A/F116A (domain or fragment, human, UniProt Q07812 53-128, looked up, BAX α2–α5 truncate, residues 53–128, human; also called triple alanine mutant F114A/Y115A/F116A; source: E. coli, purified (Ni-NTA, SEC Superdex S-200); not shown: His6, N-terminal, kept; GFP, N-terminal, kept) DASTKKLSESLKRIGDELDSNMELQRMIAAVDTDSPREVFFRVAADMFSDGNFNWGRVVALAAAASKLVLKALSTK | binds
GFP-BAX α2–α5 L113A/F116A (domain or fragment, human, UniProt Q07812 53-128, looked up, BAX α2–α5 truncate, residues 53–128, human; also called double alanine mutant; source: E. coli, purified (Ni-NTA, SEC Superdex S-200); not shown: His6, N-terminal, kept; GFP, N-terminal, kept) DASTKKLSESLKRIGDELDSNMELQRMIAAVDTDSPREVFFRVAADMFSDGNFNWGRVVAAFYAASKLVLKALSTK | binds
GFP-BAX α2–α5 L113A/Y115A/F116A (domain or fragment, human, UniProt Q07812 53-128, looked up, BAX α2–α5 truncate, residues 53–128, human; also called triple alanine mutant L113A/Y115A/F116A; source: E. coli, purified (Ni-NTA, SEC Superdex S-200); not shown: His6, N-terminal, kept; GFP, N-terminal, kept) DASTKKLSESLKRIGDELDSNMELQRMIAAVDTDSPREVFFRVAADMFSDGNFNWGRVVAAFAAASKLVLKALSTK | binds
